Experimental data from the DeepSol protein solubility set.

Test: soluble on expression in E. coli; label from the status in PepcDB or PDB records

Sequence	soluble on expression in E. coli
MGSDKIHHHHHHMRILILGAGKMGSFFTDILSFQHETAVFDVNPHQLRFVYNTYRFTTLEEIKEFEPELVINAATVKYTLDAFRKILPVLPKDCILSDIASVKTGLKKFYEESGFRYVSTHPMFGPTFASLSNLSSESAIIISESDHLGKVFFKDLYNSLNLNIFEYTFDEHDETVAYSLSIPFVSTFVFAAVMKHQEAPGTTFKKHMAIAKGLLSEDDYLLQEILFNPRTPSQVENIRTELKQLLEIITNKDAEGMKKYLTKIREKIK	not soluble
NEKETISYIINTSKNIVIFALSPDKTKASYRVAEFLQRKNYKIFPIYPKEEFILNEKVYRNLDQIEEKIDTLILFRKGEVALEILPKLVEKNIKNLWLQLDISNETAKEECKKLDINFIQNRCIMLEYPHFK	not soluble
MTASSPNRARTSLAAYASAGPVSLPAGSTRTVASGTSSRTRSAYASRVTASRSSAKAARSAVRRSRLRSSSPSASSCLGRWLRLAGYSRVPVPPASRTAATVCVTARSPGGWSACRRVRRRGPNACLRGASDRVHPGCGDLKGVGSKHRYVSHRNTRGDGYTTMSDLSDTAQEVHDDLSEHVDATVDDVEARLEKLVSEYKVPVDEARRSVENHYLDEAGLDRDDLAGGGGNDTVEVEDVDEAEQWVDITAKVVELWEPRSDSVGQVGLLGDPTGTIKFTKWAKSDLETLDEGQVYRLGNVVTDEYQGRYSVKLNKTTSIEAVDEEFEVGDNEDEVAGALVDVQSGSGLIKRCPEEDCTRVLQNGRCNEHGEGDGEFDLRIKGVLDDGTDVHEVIFDEEATEALTGIGLEEAKQMAKDALDTTVVADEMRATILGKYYRVTGPTFGRYVLANDTELLTTRPDTESVLIRARSILEHHHHHH	not soluble
MENLASPPDISFVIAAYNAADTIEAAVQSALDQRGVTLEVIVVDDRSADDTITFVEAIAAIDPRVRLLALEENRGPGGARNAGIEAATGRWIAVLDSDDVIRPERSACMMCRAEAANAAVAVDNLDVVYTDGRPMETMFPEEFLEERAVLTLEDFISSNILFRSTFNFGYMKPMFRRDFLNNEGLRFREDIRIGEDYILLASALAAGGLCVIEPKPGYIYNIREGSISRVLELHHVEAMMRADQEFLSHYTLLPAAMDAQQARARSLQLAHNFLTLVENIKRRSVLGALKTTIRDPAVLGHLRMPIAVRLRRLRDAMFAPAAKIQGLEHHHHHH	soluble
EQVVARKKLEESESRFRALVNASSDVVYRMNADWTVMRELEGRDFLTPAGTAMADWVETYTYREDRALVKATAAAAIEGKRIFELEHRVLKADGTIGWTFSRAIPILDEQGNIIEWFGSAADIT	not soluble
MDISRRNFLKSTASFGAIASLGLPGYSLAAPSNDFRALICVYLAGGNDAINTILPLSDFHYNQYANVRGSLSVAKNTIIPIRLNAHDANNNAVPLGLHPKLSALAPLFQQGDANLVLNSGILNQPVTKQAIEQGDVPLPEQLFSHNSQTASWLRGGMDASTNLGWAGRMLDVLTSDAQITPLYSVHGDTLWLKAMEHRQTVLKKDKAVQLTAVGNPLYEEVYQKLLSQSADNPFSGHFNLMVDESMMMSNILAEQLKLIDDAPLFSSSTLGKQMQTVYKLIASQSALSQQRQVFFVKHTGYDLHDSQLARHPLLLEDLATNLNAMYRAVDKLGMSKNVTTFTMSDFGRRMTNNGNGTDHGWGGHQLLIGGAVNGSAPIGTWPELTLGGQDDYSKGRLIPAIAADQVGSTLAQWMGVSDNAALEYVFPNIRNFTTSNLGFMA	not soluble
NLYFQGHMVLKLLLELGAERYAEQFAAKCHELGMVMKESAGPGRVPVPVTLQPSMISRGEFGTLCCMQPLWNEAVDNTARNFTFLRDALQETAASDVNFTGKLLNMLQEVYLSGGPFQQLMLGIFRTDYMREGVYDKMLSTTASRWKNVEINTISCSFAGLSPLITEFHQHIAAYLQVLQKARGKEDDDGVENMSWIWGKGNCRLERSVSGDVVPKAIADAVRAWVEQQKFASLRASWEQFQQNEVGSGEIHQLGVLDTAPVVLVVVQENERNTADQYALLMRVLEEHRIRFIFRTLQELHLSLKLHSISPEQPPLAVVDGHYPIAVAYFRSTYVPEDFPTDATWAARLSLERSSAIKCPSIPYHLLTFKKLQQLLCDVDRVLVPVAFCGDSDKAGLLQRHFVPQYSLNPKEVGEEAVEKVIHDVLQRPDQFVLKPQLEGGGNLLSGETMVKALKATKEGDPVTYSKVRCEYVVMSRIQFHVSTGSLLARGDVVQLERNMCSEVGIFGVILSAAKGSSVGTNGSSVLFNTFAGYTVRSKPADADDGGVMAGVAALDSLAVVP	soluble
GPGSMSTLKEVNGRLNTQPFVSGFSPSSEDARIFNEMFGSNVNVIQWVARMASYYQAERDEILNAGTEKKATEPAKKAAAPAPAAAAAAEEEDDIDLFGETTEEEKAALEAKKAKDAEKKKAKKEVIAKSSILFDIKAWDDTIDLEALAQKLHAIQRDGLIWGDHKLVPVAFGVKKLQQLIVIEDDKVSGDDLEEMVMGFEDEVQSMDIVAWNKI	soluble
MQLQKLVNMFGGDLTRRYGQKVHKLTLHGGFSCPNRDGTIGRGGCTFCNVASFADEAQQHRSIAEQLAHQANLVNRAKRYLAYFQAYTSTFAEVQVLRSMYQQAVSQANIVGLCVGTRPDCVPDAVLDLLCEYKDQGYEVWLELGLQTAHDKTLHRINRGHDFACYQRTTQLARQRGLKVCSHLIVGLPGEGQAECLQTLERVVETGVDGIKLHPLHIVKGSIMAKAWEAGRLNGIELEDYTLTAGEMIRHTPPEVIYHRISASARRPTLLAPLWCENRWTGMVELDRYLNEHGVQGSALGRPWLPPTE	soluble
MSLADYLTVTHLTKYLKLKFDRDPYLERVYLTGQVSNFRKRPTHQYFSLKDESAVIQATMWAGVYKKLGFDLEEGMKINVIGRVQLYEPSGSYSIVIEKAEPDGIGALALQFEQLKKKLTAEGYFEQKHKQPLPQFVSKIGVITSPSGAVIRDIITTVSRRFPGVEILLFPTKVQGDGAAQEVVANIRRANQREDLDLLIVGRGGGSIEDLWAFNEEIVVQAIFESQLPVISSVGHETDTTLADFVADRRAATPTAAAELATPITKTDLMSWIVERQNRSYQACLRRIKQRQEWVDKLSQSVIFRQPERLYDAYLQKIDRLSMTLMNTMKDRLSSAKENKVQLDHALANSQLQTKIERYQDRVATAKRLLMANMASQYDSQLARFEKAQDALLSLDASRIIARGYAMIEKNQALVASVSQITKGDQLTIKMRDGQLDVEVKDVKNENIEGHHHHHH	not soluble
GKVAKPVLLHQSSTEVSSTNQVEVPDTTQSSPVSISSGLNSDPDMVDSPVVTGVSGMAVASVMGSLSQSATVFMSEVTNEAVYTMSPTAGPNHHLLSPDASQGLVLAVSSDGHKFAFPTTGSSESLSMLPTNVSEELVLSTTLDGGRKIPETTMNFDPDCFLNNPKQGQTYGGGGLKAEMVSSNIRHSPPGERSFSFTTVLTKEIKTEDTSFEQQMAKEAYSSSAAAVAASSLTLTAGSSLLPSGGGLSPSTTLEQMDFSAIDSNKDYTSSFSQTGHSPHIHQTPSPSFFLQDASKPLPVEQNTHSSLSDSGGTFVMPTVKTEASSQTSSCSGHVETRIESTSSLHLMQFQANFQAMTAEGEVTMETSQAAEGSEVLLKSGELQACSSEHYLQPETNGVIRSAGGVPILPGNVVQGLYPVAQPSLGNASNMELSLDHFDISFSNQFSDLINDFISVEGGSSTIYGHQLVSGDSTALSQSEDGARAPFTQAEMCLPCCSPQQGSLQLSSSEGGASTMAYMHVAEVVSAASAQGTLGMLQQSGRVFMVTDYSPEWSYPEGGVKVLITGPWQEASNNYSCLFDQISVPASLIQPGVLRCYCPAHDTGLVTLQVAFNNQIISNSVVFEYKARALPTLPSSQHDWLSLDDNQFRMSILERLEQMERRMAEMTGSQQHKQASGGGSSGGGSGSGNGGSQAQCASGTGALGSCFESRVVVVCEKMMSRACWAKSKHLIHSKTFRGMTLLHLAAAQGYATLIQTLIKWRTKHADSIDLELEVDPLNVDHFSCTPLMWACALGHLEAAVVLYKWDRRAISIPDSLGRLPLGIARSRGHVKLAECLEHLQRDEQAQLGQNPRIHCPASEEPSTESWMAQWHSEAISSPEIPKGVTVIASTNPELRRPRSEPSNYYSSESHKDYPAPKKHKLNPEYFQTRQEKLLPTALSLEEPNIRKQSPSSKQSVPETLSPSEGVRDFSRELSPPTPETAAFQASGSQPVGKWNSKDLYIGVSTVQVTGNPKGTSVGKEAAPSQVRPREPMSVLMMANREVVNTELGSYRDSAENEECGQPMDDIQVNMMTLAEHIIEATPDRIKQENFVPMESSGLERTDPATISSTMSWLASYLADADCLPSAAQIRSAYNEPLTPSSNTSLSPVGSPVSEIAFEKPNLPSAADWSEFLSASTSEKVENEFAQLTLSDHEQRELYEAARLVQTAFRKYKGRPLREQQEVAAAVIQRCYRKYKQLTWIALKYALYKKMTQAAILIQSKFRSYYEQKKFQQSRRAAVLIQKYYRSYKKCGKRRQARRTAVIVQQKLRSSLLTKKQDQAARKIMRFLRRCRHSPLVDHRLYKRSERIEKGQGT	soluble
MIDVPFLKNVTLKKENIPSFSAYPYCLPAIRTLQSLAFHPNVTFIIGENGTGKSTLLEGIAIALGFNAEGGTKNFRFSTNDSHSSLHEYLRISKSFNTPSDGFFLRAESFYNVASYIDEIDADLEARGNPVIDSYGGISLHEQSHGESFFSLFMNRFSGQGLYILDEPEAALSPMRQLSMLIRMHELAEQGSQFVIATHSPILMAYPESTIYSLTQEGIQESALEDTEHYQTTKLFFENRDRLFHHLFNSLEHHHHHH	soluble
MNNEFLQTEEDIVRMLRTVYDPEIPVNVYDLGLIYNVDVGADGFVTVTMTLTAPNCPAADFIIEDVRMKVESVKGVKGVKIDLTFEPEWNKDMMSEEAMLELGFL	not soluble
MSLYTFKELKRATKQDTVSLPKLKVALLGDTATQLLATAIKGEGILRNYNIELWEAEYNQVERQIMDPTSDYYQFEPDYTIIFHSTHKLLEKHSLVNSDLQNKLADDRLDFVRLLCEQGIGRVIYYNYPEIEDTIWGSYATKVQSSFTYQLTKLNYELMNISQAYPNFFICNLAGISAKYGRNFMFDSSVYVNTEIILSLDALPIISSRTIDIIAAIQGKFKKCLILDLDNTIWGGVVGDDGWENIQVGHGLGIGKAFTEFQEWVKKLKNRGIIIAVCSKNNEGKAKEPFERNPEMVLKLDDIAVFVANWENKADNIRTIQRTLNIGFDSMVFLDDNPFERNMVREHVPGVTVPELPEDPGDYLEYLYTLNLFETASFSEDDKDRTKQYQIEAKRVSLQQSFTNEAEFLKSLDMVSEVKGFDKFNTPRVAQLSQRSNQFNLRTVRYTEAEIAAIESDLHYATFSFTLADRFGDNGLICVIILEKQDTETLFINTWFMSCRVLKRGMENFTLNTLVDYARSNGFKRFIGEYLPSAKNQMVEEHYPHLGFSKMEGGDNAARYVLDVETYEEKECYITKKEGHHHHHH	soluble
MSNVQNASRSSAFAAVEGDHWVESLDDGRHVLIRPLREEDRERERQFINRLSPATRHFRFLGEIKEASPALLDQLMDIDYQQSMAFVALVHEDGELREVGISRYAACCEEGQCECAVTIADDYQGLGLDAVLMRHLIDVARRNGFRQMYSVDSAANRAMRDLCCALGFVGQRDPDDSTQVIHRLAL	not soluble
MGSDKIHHHHHHMNQYERKMLDLLKRGKQELGYVGVKAEFEAEGTRTDELLRLIELARKAGLNVGLKIGGCEAMRDLMESKQYGVEYIIAPMIESGYALSKFIDAKNKVYSKDEQRDTRFLFNVETKSAFGCMDELVQIAAQPGGADGVVFGRVDFSLSMGLTRDDINDPKVTSYCLEVSEACKRSGLDFVVGGGVSMDALSIMKELNSSHLSRFETRKIIFDAAMMENADVHNGLLQAVHFELLWLLNKREYYSCILKEDAKRIEMLERRWHVLSADEKASTSTYVNQPNI	not soluble
